Experimental data reported in paper PMC6148051, “p53 cooperates with SIRT6 to regulate cardiolipin de novo biosynthesis” (Cell Death & Disease, 2018).

Biological target: T1, His-tagged p53 protein (UniProt P04637 1-393)
T1 construct: tumor suppressor p53, cloned into pET28b+; also called His-p53; source: bacteria (pET28b+), purified (Ni(II)-Sepharose)
Assay: pull-down; GST or GST fusion proteins on glutathione-Sepharose 4B beads incubated with purified His-tagged proteins in TEN buffer (10 mM Tris-HCl, pH 8.0, 1 mM EDTA, 100 mM NaCl), 4 h, 4 °C; blot with anti-His or anti-GST, Coomassie staining
Conditions: both partners purified

T1 sequence (P04637 whole entry): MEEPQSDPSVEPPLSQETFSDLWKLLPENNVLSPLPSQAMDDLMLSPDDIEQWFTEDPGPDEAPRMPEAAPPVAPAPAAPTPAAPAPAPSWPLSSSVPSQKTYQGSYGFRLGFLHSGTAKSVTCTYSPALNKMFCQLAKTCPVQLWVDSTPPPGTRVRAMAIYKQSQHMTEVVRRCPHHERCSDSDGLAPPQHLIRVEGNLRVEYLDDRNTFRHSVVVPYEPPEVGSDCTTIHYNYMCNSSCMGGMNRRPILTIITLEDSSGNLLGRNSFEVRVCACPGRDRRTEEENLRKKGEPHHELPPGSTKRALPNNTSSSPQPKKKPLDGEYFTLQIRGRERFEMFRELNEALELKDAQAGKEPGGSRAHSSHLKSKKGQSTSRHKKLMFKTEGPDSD

binding result: binds
B1: GST-SIRT6 core domain, 35–276 aa (domain or fragment, UniProt Q8N6T7 35-276, looked up)
chain: WELARLVWQSSSVVFHTGAGISTASGIPDFRGPHGVWTMEERGLAPKFDTTFESARPTQTHMALVQLERVGLLRFLVSQNVDGLHVRSGFPRDKLAELHGNMFVEECAKCKTQYVRDTVVGTMGLKATGRLCTVAKARGLRACRGELRDTILDWEDSLPDRDLALADEASRNADLSITLGTSLQIRPSGNLPLATKRRGGRLVIVNLQPTKHDRHADLRIHGYVDEVMTRLMKHLGLEIPAW
notes: source: bacteria, purified (glutathione-Sepharose 4B)
